Data reported in the domain aggregation screens of Martell et al. (2025).

experiment: soluble fraction after stress (log2 fold change); higher = more stays soluble; pooled small domains, quantitative proteomics; conditions: stress: pH 4
How it was run: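 Custom libraries of small protein domains were pooled and exposed to pH 4. High-throughput quantitative proteomics then measured the log2 fold change in the amount of each domain still soluble, with higher values meaning more stayed soluble. This soluble-fraction fold change stands for aggregation propensity.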

Sequence | soluble fraction (log2)
HMSHRVGDVVELTAVRMNDQGVFLDAGTGNTSDDILLHKHQMTSPVSVGDKVKVQLYLDAKNRITASMKL | -0.199
HMGLPAWVPQNYIDRVTAIYDYSADKDDELTFNEGSTIFVLKKNDDGWWEGVMDGVTGLFPGNYVEAT | -1.63
HMIPYSDLLKLLSNDAMPKFRNKDGWAKIHALETYLASRWSYQEYGFASFTVLLETVHNAEIRNDSVRLM | -0.0131
HMQLKFTDLRKEILRMIWEGHGPQKAYDLLNKLQQTNPSAKPATVYRALDFLIGNGFIHKVASLNAFVG | -0.942
HMGESEWIVKWRGEKRDEERLQESELVRDDPEHRISVVRPRDDVDASAWLNRWRKSRYVQYIQPNHRVTIS | 0.0349
HMKITADQEIETAINYFKKSIAEKGWKGVNPDEFKQMNDYLSETFGYSATIKFQKALDEQGLMVDE | -0.429
HMIISMKKGATPQEISHVRKLIEELGYKVHESQGSERMVFGAIGDERSKHRLTSLEAQPGVEKVIPILA | 0.168
HMSIYYQIYESLKKDLSNNLYKPGEKLPSENVLSKRFGVNRHTIRRSLQLLKNEGILFSKRGSGIIVHD | 0.359
HMEKINLIIEEDNNLRLDKVIAMQLQELSRTQIQDMINQGLVLVNQKKEKASYKTKLNDEIEITILD | -0.382
HMINIFKVKKAMEEIFASEWEDSPYTDQKISQILWSRGFSVSTGLVEKYRGQMGVPDANSRLNLN | -1.39
HMVVVMEKNASSAEIEQVQERLRQAGFKIHLSQGVERTIIGAIGDRSQVDLGFLEALPGVEKVVPIMK | 0.248
HMSMPTITLQHYKRGSHYYASIIETFRDPVTRKNSSRTLEALGDISEKMKEDPNYLQSLKDRVKALRSD | 0.156
HMMLVKKMLNGIMMKEITIKELADQYDVSTRTIQLKIKKLGYEWDSKESIYRYVGKESEPLDVDFSTLI | -1.47
HMETYSGVERAAILVMYLERTLAKALLDHMNDEEVRRVGMAMASIDRVEGPDIERIVGDFVRELYEVS | -0.857
HMQSITAGDKVRVKNYTVSGGKKRGKVYGGAGTFVVYYEKYDVISVTGDRVVIGIGKAVTAAVHIDDLEK | -0.932
HMVDDRPVTGTTLIREWQGRAYEVIVQAGHFEFQGQRYQSLSAIAKVITGTVWNGWAFFGLR | -0.444
HMGRTGTVVVSPSLNVRTGPWGEIIGSLYNGNKVEIIGSSGDWYQISFGGKTAYVHSDYVVDGG | -0.779
HMSDAGAIEPTIKEILASNPKAVEEYLAGNIKNINALIGQSMKALHGKADPQTVRNLLAKLLDEM | -0.487
HMDIFFEKIFNILIGYNQNQENLISEKSILNFHLSHKSNSNFEYIPDEKTPKYIWKYLSNYNLLE | -0.477
HMSGQLTEEQVKQIVTTAVKNSSGSTLTAAEVSRIVSTAVANNLTADQVKTVVNNALAGITTDISTLKA | 0.202
HMNETHANKVYNFLKKKKKPLSAYEILKELASEGISAPTTIYRALNKLVSNGLIHKIESLNAWTV | 0.185
HMTPQDYEYLRKLLKDQSGLDLSVDKQYLLESRLVPLSRKAGLAGIPELVQKMKAGSASLTAQVVEAMTT | 0.07
HMSEEIKVPNFVGSTFEKAQALAQETGLEIARGEDVYSPDQEEGKITSQNPTADSVVSPGKLITVYVSKG | 0.0365
HMELEAFPNPTDMFLSFTTKEKTPLAIYDINGKQVLYVEQITSSSKINVSKLSEGVYFAKTNQGTVKWVK | -0.46
HMLAAGTSLTVDTESSNLNIRQEPSTEGVILGKAAKGEVVTLVEQSSDEWWKIKTKDGEEGYAYARYLR | 0.0235
HMTTLAADFNSDGRVDIGDLSILAGNWGKSRTNEVDFNKYGDADYNGRIDIIDLSILATQFGQTDNSN | -0.142
HMYITGAVIRKLREKNNITQLQLAERLRVSDKTISKWETGKGYPDITLLEPIAKTFSVSVTELISGDI | -0.84
HMLDEPPVSQTLTTYDREHMALYLRLLDSARDGADWREAVQILFGLDPTRDPLRSRHVHDTHLARARWM | -0.452

Sequence | soluble fraction (log2)
HMTIRIPEEEYLTRAKRAAQMTAERGLDALFLFGSEGDFQNVRYFTSVTPIWERLGVVITASGKAAMLTGP | -0.0548
HMDALPLIQLEKEIKDFISQGQKINAIKHYRNVMDRDFGTTISLKLAKYTVDALAQNIKVDLTKGYDQ | -0.852
HMTFNLDVDGDDQVTALGDGLMIIRKLFGATFAGDALTNKAISPDATRTTDEIHAYIEKGITSGVLD | -0.288
HMNVEVDSIGDDDFLVKVSAGTSTEHRVTLTDAYWEQIWSSSLPKKEIISLSFAFLLEREPNSSIMRT | -0.937
HMSAPVFRITPAGVVVNGLKRSDILTLTRIDGAMNTLPHNAGEVLVSTEGLAKGVYVITAGGKSLKFLV | 0.00157
HMKKERITWDERLERFAKYITENESLPYPSSKEHAWFEENKALYDAGELESVRAQSFSFLLKILRRMNLI | -0.449
HMSKDKEKRTREHVLGILKKYDKVMTDKAFTVFKKMIKDESILEMELIKLINFIGERKEIRSKDVLAVVTE | -0.329
HMAHESYVKEQLLLSLTNHEDPIMQISLIEQLTKMHERNIIHELEKLTVDVQTNEEVKVQAYASLLILS | -0.962
HMTPAKQVSAKAERWIDQLGSSDWEKREEAAAELKKLGGAAKSALEKALKNADPEVASKAEELLEALES | 0.213
HMETMSGTVKWFNTQKGYGFITGDDGAEYFAHQTQIKMDGFRTLDAGDIVEFDVRSEEKGLAAVNIVP | -0.707
HMRDYKTALQEWVQRTPGQPIAYRLVDELGPDHARVFVMEVTVGGQSAGQGRGRTKKEAEQLAARAALEKL | -0.0915
HMKQPVPDEIYFKRLANATEALGRYPRASERKKFGLNMSKRRYPTLTDFINKAIELGYVEDFR | 0.22
HMAGGNHPTRLELLDSAAHIAERDGTSALTVDAITKSAGHAKGTFYIHFDDRADLLVEMHRR | -0.323
HMRLNIRTKNNYSYYTIIKDYTNLNGKRTTTIFEKLGNQQQVEERFGKVNTIENIKKYIEELNNE | 0.22
HMSSAVKRALAELPENWRMIVYYRVVEGLSYAEIAKVLDIPDGSVMSGLHRGKKMLRGLLLEYAQQEGYD | -0.74
HMKSAIGEEKAENFAFADLGMDPLSAEGVRTEFGFEQGQFVYKVYFTADGTEYEYWIKASDGSVVKKGMDL | -1.33
HMRVELVVVPELRQQLLPEARELANSAGLQLRVRGQSPADETRTIVVTQSPAAGTRVAARSIVLVE | 0.338
HMAIHTSVTEHGEHDLTVRMEMEQVFAIEMAVVSHEQATMLERTFKANAEAIYQKLLGVMTQEYP | -0.841
HMLTIEEYLTQLKKLMKDRDAATVRDALSDAEEHLRNAMAGEDPSRLDGIIEEYGSPEEIAAAYKIMEEHT | -0.715
HMFPDLSPEQQRIVDVLTKSNDLQLNQLSVKTGIPIGDITSILFQMEMMGVVKPMAGGNYHLL | -0.0768
HMSLMLYVEDVDTAFKKAIELGATEIRPVHDQFYGDRAGTLQDPFGHIWIIGTHKEDVSDEELNNRIGNI | -0.332
HMDANAYTYKVSEDTDTRTGEKIFLVKVAEKLSRKEYIVVNNYMKSLGSYYSKFKHAFLFKENPTEKL | -0.246
HMAAPELLTVRERQVAALISDGLSNQQIAHRLHLEVTTVKAHIGSIFNRLDMNNRVQIAIWAHDRQLVFS | 0.0815
HMKKHAPSLMRQIRRELKEGKSPESLLSKAKLISDSYYRSLSFYLLIPYLSPNSKQFQEAISLAGKDID | -0.216
HMNFDVETGLPLDSRLVVSGLIQRDGINSLKRYEGMIVYVESEAKNYQLVGGISNTDWAELS | -0.426
HMSSVEVWINGKSSGLTSDNRAQILQQLPAESIERIEVIDNPSAKFSAEGSAGIINIVLKKD | -0.177
HMTLREQISALIKQGKLTQAKLARETGVNGGALSAWINGKYTGNVETVEEPIKHWMALNERK | ≥ 0.43
